# According to the RNAGym collection of RNA variant scans (doi:10.7554/elife.80360):
# B1: CPEB3 Ribozyme (parent)
# chain: GGGGGCCACAGCAGAAGCGUUCACGUCGCGGCCCCUGUCAGAUUCUGGUGAAUCUGCGAAUUCUGCUGU
# Variants of: B1
# Assay: self-cleavage, relative activity (ratio to wild type); higher = more cleavage; co-transcriptional
row,Variant,self-cleavage
1,A16U G19U,0.164
2,A16U G19A,0.13
3,G17A C39G,0.216
4,G17A C39U,0.213
5,G17A C39A,0.201
6,A16U G31A,0.482
7,A16U A40G,0.754
8,G17A A42U,0.314
9,G17A A42C,0.253
10,A16U C45A,0.842
11,A16U C18A,0.0736
12,A16U C24A,0.23
13,G17A C29A,0.572
14,G17A C29U,0.858
15,A16U G58A,0.866
16,A16U G58C,0.756
17,A16U U53G,0.549
18,A16U U53A,0.66
19,G17A C54G,0.187
20,G17A C54U,0.488
21,G17A C54A,0.236
22,A16U G37U,0.173
23,A16U G37A,0.154
24,A16U A51U,0.853

row,Variant,self-cleavage
1,A16U A51G,0.841
2,A16G U69G,1.04
3,G17A G58A,0.259
4,G17A G58C,0.454
5,A16U C63G,0.361
6,A16U U69C,1.02
7,A16U U69A,0.923
8,G17A G48C,0.599
9,G17A G50C,0.387
10,G17A G50U,0.547
11,G17A G50A,0.488
12,A16U G30C,0.189
13,A16U G30A,0.22
14,G17A G37A,0.153
15,G17A G37C,0.149
16,A16U U26A,0.221
17,A16U U26C,0.812
18,G17A C63A,0.171
19,G17A C63G,0.257
20,A16U G28A,0.0797
21,A16U G28C,0.166
22,A16U G28U,0.131
23,A16U C34G,0.353
24,A16U C34U,0.892

row,Variant,self-cleavage
1,A16U C34A,0.4
2,G17A C34A,0.2
3,G17A C34U,0.524
4,G17A C32G,0.13
5,G17A C32U,0.625
6,A16U A60U,0.251
7,A16U A60G,0.56
8,A16U A60C,0.227
9,A16U U49G,0.817
10,A16U U49A,0.96
11,A16U U49C,0.834
12,A16U U64G,0.545
13,A16U U64C,0.463
14,A16U U64A,0.588
15,A16U A23U,0.867
16,A16U A23G,0.528
17,G17A G19U,0.114
18,G17A G19C,0.095
19,G17A G19A,0.154
20,A16U C66U,0.785
21,A16U C66G,0.356
22,A16U C66A,0.427
23,A16U U67A,0.877
24,A16U U67G,0.9

row,Variant,self-cleavage
1,G17A G41U,0.183
2,G17A G41A,0.133
3,G17A G41C,0.141
4,G17A A23G,0.243
5,G17A A23U,0.585
6,G17A A23C,0.483
7,A16U G68U,0.948
8,A16U G68C,0.875
9,G17A C45G,0.435
10,G17A C45A,0.366
11,G17A C18G,0.147
12,G17A C18A,0.116
13,A16U U36A,0.166
14,A16U U36C,0.438
15,A16U U38A,0.424
16,A16U U38C,0.625
17,G17A A60U,0.203
18,G17A A52G,0.596
19,G17A A52U,0.519
20,G17A G28A,0.145
21,G17A G28U,0.139
22,A16U C39G,0.693
23,A16U C39A,0.317
24,A16U C39U,0.533

row,Variant,self-cleavage
1,A16U G48A,0.862
2,A16U G48C,0.889
3,G17A A59G,0.691
4,A16U C22A,0.12
5,A16U G47A,0.893
6,A16U C32U,0.936
7,A16U C32G,0.24
8,A16U A59U,0.381
9,A16U G65A,0.442
10,G17A A40U,0.2
11,G17A A40C,0.145
12,A16U G17U,0.147
13,A16U G17A,0.203
14,A16U C29G,0.243
15,A16U C29A,0.288
16,A16U U61C,0.599
17,A16U U61A,0.93
18,A16U U61G,0.902
19,A16U G56U,0.624
20,A16U G56A,0.616
21,A16U G56C,0.82
22,A16U,0.888
23,G17A C57U,0.197
24,G17A C57A,0.145

row,Variant,self-cleavage
1,G17A C57G,0.227
2,G17A C35G,0.179
3,G17A C35A,0.136
4,G17A C24G,0.116
5,G17A C24A,0.221
6,A16U U21A,0.839
7,A16U U43G,0.395
8,A16U U43A,0.615
9,G17A G25U,0.117
10,G17A G25A,0.201
11,G17A G25C,0.147
12,A16U A52G,0.888
13,A16U G50U,0.862
14,A16U U46C,0.874
15,A16U U62G,0.625
16,A16U U62C,0.734
17,A16U G41C,0.366
18,G17A G47A,0.541
19,G17A G47C,0.641
20,A16U U20A,0.124
21,A16U U20C,0.196
22,G17A G31U,0.113
23,G17A G31C,0.135
24,A16U U55G,0.335

row,Variant,self-cleavage
1,A16U G25C,0.194
2,G17A C22A,0.157
3,G17A C22G,0.127
4,G17A C66G,0.233
5,G17A C66U,0.347
6,G17A C66A,0.226
7,A16U C35U,0.768
8,A16U C35G,0.213
9,A16U C35A,0.159
10,A16U C33G,0.319
11,A16U C33U,0.865
12,A16U C33A,0.555
13,G17A C33U,0.43
14,G17A A51G,0.455
15,G17A A51C,0.452
16,A16U U44A,0.729
17,A16U U44C,0.703
18,G17A G30A,0.164
19,G17A G30U,0.176
20,A16U C57U,0.196
21,A16U C57G,0.246
22,A16U A42G,0.739
23,A16U A42C,0.746
